Measurements taken from patent publication US20210238310A1.

Assays:
[1] = target: FcγRIIIa, on Jurkat effector cells (UniProt P08637); assay: cell-based or functional assay
[2] = target: human FcγRIIa-H variant (Histidine at amino acid 131), on Jurkat effector cells (human) (UniProt P12318); assay: cell-based or functional assay
human FcγRIIa-H variant (Histidine at amino acid 131), on Jurkat effector cells (human), sequence (P12318 34-317, change not shown): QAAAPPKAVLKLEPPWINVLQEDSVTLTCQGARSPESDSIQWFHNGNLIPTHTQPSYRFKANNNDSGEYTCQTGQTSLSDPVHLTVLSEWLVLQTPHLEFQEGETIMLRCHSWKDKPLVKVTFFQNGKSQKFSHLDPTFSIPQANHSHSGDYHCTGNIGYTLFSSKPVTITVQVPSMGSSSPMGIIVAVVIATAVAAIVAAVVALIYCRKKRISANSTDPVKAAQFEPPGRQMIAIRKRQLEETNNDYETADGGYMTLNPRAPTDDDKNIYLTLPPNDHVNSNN

FcγRIIIa, on Jurkat effector cells, sequence (P08637 17-254 limits assumed): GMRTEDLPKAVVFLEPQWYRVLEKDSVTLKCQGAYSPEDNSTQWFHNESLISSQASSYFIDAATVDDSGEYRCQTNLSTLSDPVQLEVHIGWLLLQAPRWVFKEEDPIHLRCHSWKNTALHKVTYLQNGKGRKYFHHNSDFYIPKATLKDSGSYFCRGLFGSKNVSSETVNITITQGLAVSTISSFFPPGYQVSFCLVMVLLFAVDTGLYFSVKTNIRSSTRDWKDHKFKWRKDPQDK

Row | Substance | EC50 (nM), Mean; FcγRIIIa signaling in an ADCC reporter assay (luciferase, HEK-PD-L1 target cells) [1] [nM] | EC50 (nM), Mean; FcγRIIIa signaling in an ADCC reporter assay (luciferase, Raji target cells) [1] [nM] | EC50 (nM), Mean; FcγRIIa signaling in an ADCP reporter assay (luciferase, Raji target cells) [2] [nM]
1 | avelumab monoclonal antibody, fucosylated | 0.049 | – | –
2 | obinutuzumab monoclonal antibody, fucosylated | – | 0.08 | 7.1
